The target in this assay is rabbit skeletal muscle actin, polymerized in vitro (F-actin) (rabbit) (UniProt P68135). Kind of assay: co-sedimentation; F-actin cosedimentation: CaVβ proteins incubated with polymerized actin in polymerization buffer (0.2 mM CaCl2, 50 mM KCl, 2 mM MgCl2, 1 mM ATP, 5 mM HEPES pH 8.0), 25 µM phalloidin; 150,000 × g, 20 min, 4 °C; densitometry of pellet over total; also at 30–150 mM NaCl and after 30 or 90 min of incubation.

On to “CaVβ4 R482X (truncated, naturally occurring variant of human CaVβ4 linked to juvenile myoclonic epilepsy) (from UniProt O00305-1 1-431) (domain or fragment)”, for which the percent cosedimented with actin is > 80%.

For the origin of these results see publication PMC12065904.
